Experimental data taken from patent US20210206877A1 (Genentech, published 2021).

How the values were obtained:
Experiment in all cases: cell-based or functional assay
[1] = biological target: BACE1 ECD (as used in the enzyme activity assay) (UniProt P56817 22-457, limits assumed)
[2] = biological target: murine BACE1 ECD
[3] = biological target: human BACE1 ECD (human, UniProt P56817)
[4] = biological target: BACE1 endogenous to primary cortical neurons from E16.5 CD1 mice (mouse, UniProt P56818 46-501)
Chain of BACE1 endogenous to primary cortical neurons from E16.5 CD1 mice (P56818 46-501): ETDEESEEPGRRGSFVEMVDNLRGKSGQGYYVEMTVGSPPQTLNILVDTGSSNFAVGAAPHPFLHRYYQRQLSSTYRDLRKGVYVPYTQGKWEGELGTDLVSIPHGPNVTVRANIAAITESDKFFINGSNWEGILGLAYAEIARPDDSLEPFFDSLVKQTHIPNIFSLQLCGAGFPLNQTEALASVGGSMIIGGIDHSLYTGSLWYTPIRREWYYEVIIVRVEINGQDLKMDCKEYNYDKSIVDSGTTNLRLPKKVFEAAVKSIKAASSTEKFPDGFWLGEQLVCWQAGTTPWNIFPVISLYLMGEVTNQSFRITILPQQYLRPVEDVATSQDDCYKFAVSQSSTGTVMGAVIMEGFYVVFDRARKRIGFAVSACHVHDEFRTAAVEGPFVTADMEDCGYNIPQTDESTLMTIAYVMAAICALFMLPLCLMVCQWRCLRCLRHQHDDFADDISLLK
Wherever % inhibition, FRET short substrate assay (negative = activation) is given: test concentration or dose not given here.

Chain of murine BACE1 ECD (single chain, as listed by the source limits assumed): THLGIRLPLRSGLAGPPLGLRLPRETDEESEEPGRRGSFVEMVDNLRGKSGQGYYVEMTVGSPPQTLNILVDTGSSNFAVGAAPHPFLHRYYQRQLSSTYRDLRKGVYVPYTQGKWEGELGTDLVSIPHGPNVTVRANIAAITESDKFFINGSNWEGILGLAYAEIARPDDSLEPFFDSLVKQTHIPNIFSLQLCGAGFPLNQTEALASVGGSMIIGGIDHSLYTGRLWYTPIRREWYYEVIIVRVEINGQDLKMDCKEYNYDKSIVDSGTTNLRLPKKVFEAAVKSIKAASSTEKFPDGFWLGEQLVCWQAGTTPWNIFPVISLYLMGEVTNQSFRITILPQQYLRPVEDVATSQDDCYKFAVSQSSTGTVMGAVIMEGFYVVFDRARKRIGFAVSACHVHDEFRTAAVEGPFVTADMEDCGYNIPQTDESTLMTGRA
Chain of human BACE1 ECD (P56817 22-457): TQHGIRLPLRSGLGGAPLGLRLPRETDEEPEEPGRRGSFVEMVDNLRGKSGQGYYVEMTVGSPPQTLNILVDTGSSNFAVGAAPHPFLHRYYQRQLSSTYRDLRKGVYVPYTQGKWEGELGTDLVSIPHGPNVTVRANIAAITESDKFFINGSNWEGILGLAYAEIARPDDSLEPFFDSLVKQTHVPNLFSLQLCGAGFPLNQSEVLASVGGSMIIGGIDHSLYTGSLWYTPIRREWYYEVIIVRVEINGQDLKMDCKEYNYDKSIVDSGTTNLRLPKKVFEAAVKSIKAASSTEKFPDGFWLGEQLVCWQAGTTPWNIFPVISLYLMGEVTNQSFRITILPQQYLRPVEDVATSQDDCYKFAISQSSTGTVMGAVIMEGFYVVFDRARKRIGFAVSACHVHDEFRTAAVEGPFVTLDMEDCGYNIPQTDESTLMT
Chain of BACE1 ECD (as used in the enzyme activity assay) (P56817 22-457 limits assumed): as the sequence (P56817 22-457) above

Binder | EC50, FRET short substrate assay [1] | EC50, HTRF long substrate assay [1] | % inhibition, FRET short substrate assay (negative = activation) [2] | % inhibition, FRET short substrate assay (negative = activation) [3] | max % inhibition, Abeta x-40 in mouse cortical neurons [4] | IC50, Abeta x-40 in mouse cortical neurons (row 5884*, second run) [4]
5260 (antibody, V domains shown) VH: QVQLVQSGAEVKKPGSSVKVSCKASGGTFSSYAISWVRQAPGQGLEWMGSIIPIFGTANYAQKFQGRVTITADESTSTAYMELSSLRSEDTAVYYCARSGGTKYGMLDVWGQGTMVTVSS VL: EIVMTQSPATLSVSPGERATLSCRASQSVGSNLAWYQQKPGQAPRLLIYGASTRATGIPARFSGSGSGTEFTLTISSLQSEDFAVYYCQQAVVWPPRTFGGGTKVEIK | 36.8 nM | 720 nM | -35% | -54% | 74% | –
5536 (antibody, V domains shown) VH: QVQLVQSGAEVKKPGSSVKVSCKASGGTFSSYAISWVRQAPGQGLEWMGSIIPIFGTANYAQKFQGRVTITADESTSTAYMELSSLRSEDTAVYYCARSGGTKYGMLDVWGQGTMVTVSS VL: EIVMTQSPATLSVSPGERATLSCRASQSVGSNLAWYQQKPGQAPRLLIYGASTRATGIPARFSGSGSGTEFTLTISSLQSEDFAVYYCQQSYLWPPRTFGGGTKVEIK | – | 0.578 nM | 30% | 32% | 84% | –
5571 (antibody, V domains shown) VH: QVQLVQSGAEVKKPGSSVKVSCKASGGTFSSYAISWVRQAPGQGLEWMGNIIPIFGTANYAQKFQGRVTITADESTSTAYMELSSLRSEDTAVYYCARSGGTKYGMLDVWGQGTVVTVSS VL: EIVMTQSPATLSVSPGERATLSCRASQSVSSNLAWYQQKPGQAPRLLIYGASTRATGIPARFSGSGSGTEFTLTISSLQSEDFAVYYCQQLILWPPRTFGGGTKVEIK | 0.417 nM | 5.06 nM | -175% | -89% | 84% | –
5884 (antibody, V domains shown) VH: QVQLVQSGAEVKKPGSSVKVSCKASGGTFSGYGISWVRQAPGQGLEWMGNIIPGFGTANYAQKFQGRVTITADESTSTAYMELSSLRSEDTAVYYCARSGGTKYGMLDVWGQGTMVTVSS VL: EIVMTQSPATLSVSPGERATLSCRASQSVSSNLAWYQQKPGQAPRLLIYGASTRATGIPARFSGSGSGTEFTLTISSLQSEDFAVYYCQQLILWPPRTFGGGTKVEIK | 0.478 nM | 7.76 nM | -243% | -102% | 83% | 3.51 nM
5883 (antibody, V domains shown) VH: QVQLVQSGAEVKKPGSSVKVSCKASGGTFSSYAISWVRQAPGQGLEWMGGIIPIGGGANYAQKFQGRVTITADESTSTAYMELSSLRSEDTAVYYCARSGGTKYGMLDVWGQGTMVTVSS VL: EIVMTQSPATLSVSPGERATLSCRASQSVSSNLAWYQQKPGQAPRLLIYGASTRATGIPARFSGSGSGTEFTLTISSLQSEDFAVYYCQQLILWPPRTFGGGTKVEIK | 0.607 nM | 5.93 nM | -275% | -129% | 82% | –
5543 (antibody, V domains shown) VH: QLQLQESGPGLVKPSETLSLTCTVSGGSISSSSYYWGWIRQPPGKGLEWIGSIYYSGSTYYNPSLKSRVTISVDTSKNQFSLKLSSVTAADTAVYYCARVGHGISYFDLWGRGTLVTVSS VL: EIVLTQSPATLSLSPGERATLSCRASQSVSSYLAWYQQKPGQAPRLLIYDASNRATGIPARFSGSGSGTDFTLTISSLEPEDFAVYYCQQAYVWPPRTFGGGTKVEIK | 9.11 nM | 30 nM | – | – | 65% | –
5643 (antibody, V domains shown) VH: QLQLQESGPGLVKPSETLSLTCTVSGGSISSSSYYWGWIRQPPGKGLEWIGSIYYSGSTYYNPSLKSRVTISVDTSKNQFSLKLSSVTAADTAVYYCARVGHGISYFDLWGRGTLVTVSS VL: EIVLTQSPATLSLSPGERATLSCRASQSVSSYLAWYQQKPGQAPRLLIYDASNRATGIPARFSGSGSGTDFTLTISSLEPEDFAVYYCQQSLTWPPRTFGGGTKVEIK | 1.41 nM | 17.7 nM | – | – | 60% | –
5747 (antibody, V domains shown) VH: QLQLQESGPGLVKPSETLSLTCTVSGGSISSSSYYWGWIRQPPGKGLEWIGNIYYSGSTYYNPSLKSRVTISVDTSKNQFSLKLSSVTAADTAVYYCARLGHGYSYFDLWGRGTLVTVSS VL: EIVLTQSPATLSLSPGERATLSCRASQSVSSYLAWYQQKPGQAPRLLIYDASNRATGIPARFSGSGSGTDFTLTISSLEPEDFAVYYCQQVYLWPPRTFGGGTKVEIK | – | – | – | – | 74% | –
5572 (antibody, V domains shown) VH: QVQLVQSGAEVKKPGSSVKVSCKASGGTFSSYAISWVRQAPGQGLEWMGSIIPIFGTANYAQKFQGRVTITADESTSTAYMELSSLRSEDTAVYYCARSGGTKYGMLDVWGQGTMVTVSS VL: EIVMTQSPATLSVSPGERATLSCRASQSVGSNLAWYQQKPGQAPRLLIYGASTRATGIPARFSGSGSGTEFTLTISSLQSEDFAVYYCQQLYTWPPRTFGGGTKVEIK | 15.9 nM | 1.28 nM | 77% | 75% | 73% | –
5902 (antibody, V domains shown) VH: QLQLQESGPGLVKPSETLSLTCTVSGGSISSSSYYWGWIRQPPGKGLEWIGSIYRSGSTWYNPSLKSRVTISVDTSKNQFSLKLSSVTAADTAVYYCARVGHGISYFDLWGRGTLVTVSS VL: EIVLTQSPATLSLSPGERATLSCRASQSVSSYLAWYQQKPGQAPRLLIYDASKRATGIPARFSGSGSGTDFTLTISSLEPEDFAVYYCQQVYTWPPRTFGGGTKVEIK | – | – | – | – | 67% | –
5881 (antibody, V domains shown) VH: EVQLLESGGGLVQPGGSLRLSCAASGFTFSKYAMSWVRQAPGKGLEWVSAISGSGISTPYADSVKGRFTISRDNSKNTLYLQMNSLRAEDTAVYYCAKGAGHGSYVKGWFDPWGQGTLVTVSS VL: EIVLTQSPATLSLSPGERATLSCRASQSVSSYLAWYQQKPGQAPRLLIYDASNRATGIPARFSGSGSGTDFTLTISSLEPEDFAVYYCQQSVNFPFTFGGGTKVEIK | 5.93 nM | 33.7 nM | 98% | 97% | – | –
5583 (antibody, V domains shown) VH: not shown VL: EIVLTQSPATLSLSPGERATLSCRASQSVSSYLAWYQQKPGQAPRLLIYDASNRATGIPARFSGSGSGTDFTLTISSLEPEDFAVYYCVQRSNFPWTFGGGTKVEIK | 9.72 nM | 172 nM | 34% | 44% | – | –
5874 (antibody, V domains shown) VH: EVQLLESGGGLVQPGGSLRLSCAASGFTFGSYAMSWVRQAPGKGLEWVSATSGSGGSTYYADSVKGRFTISRDNSKNTLYLQMDSLRAEDTAVYYCAKGGSQWLYAPGSWFDPWGQGTLVTVSS VL: EIVLTQSPATLSLSPGERATLSCRASQSVSSYLAWYQQKPGQAPRLLIYDASNRATGIPARFSGSGSGTDFTLTISSLEPEDFAVYYCVQRSNFPWTFGGGTKVEIK | 0.798 nM | 3.97 nM | 33% | 37% | – | –
5876 (antibody, V domains shown) VH: EVQLLESGGGLVQPGGSLRLSCAASGFTFSSRAMGWVRQAPGKGLEWVSATSGSGGSIYYADSVKGRFTISRDNSKNTLYLQMNSLRAEDTAVYYCAKGGSQWLYAPGSWFDPWGQGTLVTVSS VL: EIVLTQSPATLSLSPGERATLSCRASQSVSSYLAWYQQKPGQAPRLLIYDASNRATGIPARFSGSGSGTDFTLTISSLEPEDFAVYYCVQRSNFPWTFGGGTKVEIK | 0.703 nM | 1.67 nM | 46% | 58% | – | –
5875 (antibody, V domains shown) VH: EVQLLESGGGLVQPGGSLRLSCAASGFTFSTYAMGWVRQAPGKGLEWVSATSGSGGSTYYADSVKGRFTISRDNSKNTLYLQMNSLRAEDTAVYYCAKGGSQWLYAPGSWFDPWGQGTLVTVSS VL: EIVLTQSPATLSLSPGERATLSCRASQSVSSYLAWYQQKPGQAPRLLIYDASNRATGIPARFSGSGSGTDFTLTISSLEPEDFAVYYCVQRSNFPWTFGGGTKVEIK | 1.99 nM | 4.9 nM | 39% | 51% | – | –
